Results from paper PMC7588443 (Nature Communications, 2020).
Where a SMILES comes first, the peptide text is derived from it.

How the values were obtained:
BBRF2Δ = molecular target: T1, BBRF2Δ (Epstein-Barr virus, UniProt P29882); test: biochemical; format: binding, human herpesvirus 4 strain M81
T1 construct: The cDNAs for full-length BBRF2 and BBRF2_17–278 were cloned into a modified pET28 vector (pSKB); made in house; host or cells: E. coli Rosetta (DE3)
Protocol: (§1) The biolayer interferometry (BLI) assay was performed using an eight-channel OctetRED biolayer interferometry system (FortéBio).
(§2) All experiments were carried out at 25 °C. Each measurement involved an 120 s baseline (with reaction buffer), followed by a 180 s (with protein or peptide) association phase, and a 180 s dissociation phase (with reaction buffer). Raw data were processed using Octet Data Analysis software 11.0 provided by Fortebio to derive the dissociation constant (KD). The results were presented in a graph using Origin (version 2019, OriginLab).

[1] = molecular target: T2, His6-tagged BBRF2Δ (Epstein-Barr virus (human herpesvirus 4 strain M81)), P29882; test: BLI
T2 chain: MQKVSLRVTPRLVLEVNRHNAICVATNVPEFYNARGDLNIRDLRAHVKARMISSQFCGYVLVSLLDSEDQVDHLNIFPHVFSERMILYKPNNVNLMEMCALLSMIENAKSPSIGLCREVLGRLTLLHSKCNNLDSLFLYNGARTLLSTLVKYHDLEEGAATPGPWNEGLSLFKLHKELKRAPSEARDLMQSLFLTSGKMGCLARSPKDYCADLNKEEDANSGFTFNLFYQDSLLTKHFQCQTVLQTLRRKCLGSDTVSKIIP

[2] = SEC-RALS, oligomeric state in solution; format: physicochemical; conditions: Superdex 75 or 200, 20 mM HEPES pH 7.0, 600 mM NaCl, 10% glycerol, 1 mM DTT
Protocol: (§3) The entire experiment was performed in buffer C. The RALS data were analyzed by OMNISEC software.

BBRF2Δ (BBRF2 17-278) [3] = molecular target: T3, BBRF2Δ (BBRF2 17-278) (Epstein-Barr virus (human herpesvirus 4 …, UniProt P29882 17-278)); test: SEC; conditions: both partners purified
T3 construct: source: E. coli Rosetta (DE3), purified (Ni-NTA, SEC)
T3 sequence: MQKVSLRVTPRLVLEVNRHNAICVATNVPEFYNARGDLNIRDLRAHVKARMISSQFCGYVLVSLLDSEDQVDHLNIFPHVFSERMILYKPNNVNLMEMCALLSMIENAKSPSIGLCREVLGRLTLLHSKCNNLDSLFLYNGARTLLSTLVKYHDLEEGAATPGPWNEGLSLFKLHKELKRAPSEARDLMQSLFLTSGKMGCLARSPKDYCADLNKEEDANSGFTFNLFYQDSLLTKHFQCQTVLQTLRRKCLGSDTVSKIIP

His6-tagged BBRF2Δ = molecular target: T4, His6-tagged BBRF2Δ (Epstein-Barr virus (human herpesvirus 4 …, UniProt P29882 17-278)); test: BLI; conditions: both partners purified
T4 construct: also called His-tagged BBRF2Δ; source: E. coli Rosetta (DE3), purified; not shown: His6, N-terminal, kept
T4 sequence: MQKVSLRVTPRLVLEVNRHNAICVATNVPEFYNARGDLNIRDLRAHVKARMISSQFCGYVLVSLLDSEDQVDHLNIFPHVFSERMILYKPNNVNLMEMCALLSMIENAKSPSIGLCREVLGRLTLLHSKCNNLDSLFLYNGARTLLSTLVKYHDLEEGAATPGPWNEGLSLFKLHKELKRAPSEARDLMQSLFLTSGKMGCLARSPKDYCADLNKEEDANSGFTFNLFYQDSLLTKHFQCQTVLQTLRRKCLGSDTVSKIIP

[4] = Solubility of recombinant BSRF1 constructs; format: physicochemical; conditions: recombinant protein
BSRF1Δ = test: SEC analysis, BBRF2Δ mutants with BSRF1Δ; format: binding, human herpesvirus 4 strain M81; conditions: Superdex 75, 25 μM each, overnight at 4 °C, buffer C pH 7.0
Protocol: as §3

BBRF2Δ(F209K) = test: Biolayer interferometry (BLI) on BBRF2Δ(F209K); format: binding, human herpesvirus 4 strain M81; conditions: compared to wild-type, pH 7.0, 25 °C
Protocol: as §1, §2

[5] = 6 μM protein, 3 mM liposomes (Golgi, ER, plasma membrane mixes), 60 min, room temperature; alone or complexed with full-length BBRF2
BBRF2Δ (BBRF2 17-278) [6] = molecular target: T3, BBRF2Δ (BBRF2 17-278); test: SEC-RALS; Superdex 75 or Superdex 200 Increase 10/300 GL; 25 μM of each purified protein mixed and incubated overnight at 4 °C; buffer C (20 mM HEPES pH 7.0, 600 mM NaCl, 10% glycerol, 1 mM DTT); conditions: both partners purified
[7] = molecular target: the molecule itself; test: as above

## CC[C@H](C)[C@H](NC(=O)[C@H](CO)NC(=O)[C@H](CC(N)=O)NC(=O)[C@H](C)NC(=O)[C@H](CCC(N)=O)NC(=O)[C@@H](NC(=O)[C@H](C)NC(=O)[C@H](CC(C)C)NC(=O)[C@H](CC(C)C)NC(=O)[C@H](Cc1ccc(O)cc1)NC(=O)[C@@H](NC(=O)[C@H](CCC(N)=O)NC(=O)[C@H](CCCNC(=N)N)NC(=O)[C@H](CC(C)C)NC(=O)[C@H](CO)NC(=O)CNC(=O)[C@H](CCSC)NC(=O)[C@@H](NC(=O)[C@H](CCC(N)=O)NC(=O)[C@H](CCC(=O)O)NC(=O)[C@H](CC(N)=O)NC(=O)[C@H](CCCNC(=N)N)NC(=O)[C@H](CC(C)C)NC(=O)[C@H](CC(C)C)NC(=O)[C@H](CC(=O)O)NC(=O)CNC(=O)[C@@H](NC(=O)[C@H](CCC(N)=O)NC(=O)[C@@H](NC(=O)CNC(=O)[C@@H]1CCCN1C(=O)[C@@H]1CCCN1C(=O)[C@H](CC(C)C)NC(=O)CNC(=O)[C@H](CC(C)C)NC(=O)[C@@H](N)CC(=O)O)C(C)C)C(C)C)[C@@H](C)O)C(C)C)C(C)C)C(=O)N[C@H](C(=O)N[C@@H](CC(=O)O)C(=O)O)[C@@H](C)O [P1] (H-DLGLPPGVQVGDLLRNEQTMGSLRQVYLLAVQANSITD-OH)
BBRF2Δ
  Kd: 7.43 µM

## DLGLPPGVQVGDLLRNEQTMGSLRQVYLLAVQANSITD (modifications not checked) [BSRF1-derived peptide 1]
[1]
  Kd: 7.4 µM

B1: BBRF2: EBV tegument protein, full-length (protein)
chain: MASGKHHQPGGTRSLTMQKVSLRVTPRLVLEVNRHNAICVATNVPEFYNARGDLNIRDLRAHVKARMISSQFCGYVLVSLLDSEDQVDHLNIFPHVFSERMILYKPNNVNLMEMCALLSMIENAKSPSIGLCREVLGRLTLLHSKCNNLDSLFLYNGARTLLSTLVKYHDLEEGAATPGPWNEGLSLFKLHKELKRAPSEARDLMQSLFLTSGKMGCLARSPKDYCADLNKEEDANSGFTFNLFYQDSLLTKHFQCQTVLQTLRRKCLGSDTVSKIIP
[2]
  oligomeric state in solution: monomer in solution

B2: BSRF1Δ with Cys95 mutated to serine (domain or fragment)
chain: ECPDRWRAEIDLGLPPGVQVGDLLRNEQTMGSLRQVYLLAVQANSITDHLKRFDAVRVPESSRGVVEAQVAKLEAVRSVIWNTMISLAVSGIEMDENGLKALLDKQAGDSLALMEMEKVATALKMD
notes: also called BSRF1Δ(C95S); source: E. coli, purified
BBRF2Δ (BBRF2 17-278) [3]
  binding result: binds

B3: BSRF1Δ(M63D) (domain or fragment)
chain: ECPDRWRAEIDLGLPPGVQVGDLLRNEQTDGSLRQVYLLAVQANSITDHLKRFDAVRVPESCRGVVEAQVAKLEAVRSVIWNTMISLAVSGIEMDENGLKALLDKQAGDSLALMEMEKVATALKMD
notes: source: E. coli, purified
His6-tagged BBRF2Δ
  binding result: binds
BBRF2Δ (BBRF2 17-278) [3]
  binding result: binds

B4: BSRF1Δ(N59K) (domain or fragment)
chain: ECPDRWRAEIDLGLPPGVQVGDLLRKEQTMGSLRQVYLLAVQANSITDHLKRFDAVRVPESCRGVVEAQVAKLEAVRSVIWNTMISLAVSGIEMDENGLKALLDKQAGDSLALMEMEKVATALKMD
notes: source: E. coli, purified
His6-tagged BBRF2Δ
  binding result: binds
BBRF2Δ (BBRF2 17-278) [3]
  binding result: binds

B5: BSRF1: Full-length BSRF1 (residues 1–218), EBV tegument protein (protein)
chain: MAFYLPDWSCCGLWLFGRPRNRYSQLPEEPETFECPDRWRAEIDLGLPPGVQVGDLLRNEQTMGSLRQVYLLAVQANSITDHLKRFDAVRVPESCRGVVEAQVAKLEAVRSVIWNTMISLAVSGIEMDENGLKALLDKQAGDSLALMEMEKVATALKMDETGAWAQEISAVVSSVTAPSASAPFINSAFEPEVPTPVLAPPPVVRQPEHSGPTELALT
modifications: left off: Flag, end not stated, kept
notes: Full-length BSRF1 (residues 1–218), EBV tegument protein
[4]
  solubility: insoluble

B6: BBRF2Δ: N-terminally truncated version with deletion of residues 1−16 (protein)
chain: MQKVSLRVTPRLVLEVNRHNAICVATNVPEFYNARGDLNIRDLRAHVKARMISSQFCGYVLVSLLDSEDQVDHLNIFPHVFSERMILYKPNNVNLMEMCALLSMIENAKSPSIGLCREVLGRLTLLHSKCNNLDSLFLYNGARTLLSTLVKYHDLEEGAATPGPWNEGLSLFKLHKELKRAPSEARDLMQSLFLTSGKMGCLARSPKDYCADLNKEEDANSGFTFNLFYQDSLLTKHFQCQTVLQTLRRKCLGSDTVSKIIP
[2]
  oligomeric state in solution: monomeric both in solution and in the asymmetric unit of the crystal

B7: BBRF2Δ(M205K): BBRF2Δ with Met205 mutated to lysine (protein)
chain: MQKVSLRVTPRLVLEVNRHNAICVATNVPEFYNARGDLNIRDLRAHVKARMISSQFCGYVLVSLLDSEDQVDHLNIFPHVFSERMILYKPNNVNLMEMCALLSMIENAKSPSIGLCREVLGRLTLLHSKCNNLDSLFLYNGARTLLSTLVKYHDLEEGAATPGPWNEGLSLFKLHKELKRAPSEARDLKQSLFLTSGKMGCLARSPKDYCADLNKEEDANSGFTFNLFYQDSLLTKHFQCQTVLQTLRRKCLGSDTVSKIIP
BSRF1Δ
  complex formation with BSRF1Δ: did not form a complex with BSRF1Δ

B8: BBRF2Δ(F209K): BBRF2Δ with Phe209 mutated to lysine (protein)
chain: MQKVSLRVTPRLVLEVNRHNAICVATNVPEFYNARGDLNIRDLRAHVKARMISSQFCGYVLVSLLDSEDQVDHLNIFPHVFSERMILYKPNNVNLMEMCALLSMIENAKSPSIGLCREVLGRLTLLHSKCNNLDSLFLYNGARTLLSTLVKYHDLEEGAATPGPWNEGLSLFKLHKELKRAPSEARDLMQSLKLTSGKMGCLARSPKDYCADLNKEEDANSGFTFNLFYQDSLLTKHFQCQTVLQTLRRKCLGSDTVSKIIP
BBRF2Δ(F209K)
  binding affinity of BBRF2Δ(F209K) with BSRF1Δ, in words: moderately reduced binding affinity
BSRF1Δ
  complex formation with BSRF1Δ: maintained the binding for BSRF1Δ

B9: BSRF1_(20-218) (domain or fragment)
chain: RNRYSQLPEEPETFECPDRWRAEIDLGLPPGVQVGDLLRNEQTMGSLRQVYLLAVQANSITDHLKRFDAVRVPESCRGVVEAQVAKLEAVRSVIWNTMISLAVSGIEMDENGLKALLDKQAGDSLALMEMEKVATALKMDETGAWAQEISAVVSSVTAPSASAPFINSAFEPEVPTPVLAPPPVVRQPEHSGPTELALT
notes: also called near-full-length BSRF1; source: E. coli, purified (as the BBRF2 constructs, 300 mM NaCl, no glycerol)
[5]
  membrane binding: did not exhibit a strong tendency for membrane binding
[2]
  oligomeric state in solution: dimerized in solution
BBRF2Δ (BBRF2 17-278) [6]
  stoichiometry N: 1
[7]
  stoichiometry N: 2
